Measurements taken from WO2006085967A2.

What was measured:
[1] = target: extracellular region of human F158 FcγRIIIa with C-terminal 6x His-tag and GST-tag (human) (UniProt P08637); assay: SPR (Table 3, not reproduced); receptor immobilized, antibody flowed
[2] = target: T1, extracellular region of human FcγRIIIa, allotype not stated where cited (His/GST-tagged) (human) (UniProt P08637); assay: AlphaScreen competition, Figure 15
[3] = target: T1, extracellular region of human FcγRIIIa, allotype not given (His/GST-tagged) (human); assay: AlphaScreen, Figure 15; fold vs WT for FcγRIIIa divided by fold vs WT for FcγRIIb
[4] = target: human FcγRIIIa on PBMCs expressing heterozygous V158/F158 FcγRIIIa (human) (UniProt P08637); assay: cell-based or functional assay
[5] = target: extracellular region of human V158 FcγRIIIa with C-terminal 6x His-tag and GST-tag (human) (UniProt P08637); assay: SPR (Table 3, not reproduced); receptor immobilized, antibody flowed
[6] = target: extracellular region of human F158 FcγRIIIa with C-terminal 6x His-tag and GST-tag (human) (UniProt P08637); assay: SPR; receptor immobilized, antibody flowed

Chain of human FcγRIIIa on PBMCs expressing heterozygous V158/F158 FcγRIIIa (human) (P08637 17-254): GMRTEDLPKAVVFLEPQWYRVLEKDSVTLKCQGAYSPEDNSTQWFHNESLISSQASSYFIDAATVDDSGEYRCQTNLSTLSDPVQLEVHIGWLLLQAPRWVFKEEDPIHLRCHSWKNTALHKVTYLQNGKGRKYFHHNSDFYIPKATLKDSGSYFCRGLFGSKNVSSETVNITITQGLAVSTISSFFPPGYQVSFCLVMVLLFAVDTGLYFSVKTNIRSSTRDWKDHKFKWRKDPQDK
T1 sequence (P08637 17-208): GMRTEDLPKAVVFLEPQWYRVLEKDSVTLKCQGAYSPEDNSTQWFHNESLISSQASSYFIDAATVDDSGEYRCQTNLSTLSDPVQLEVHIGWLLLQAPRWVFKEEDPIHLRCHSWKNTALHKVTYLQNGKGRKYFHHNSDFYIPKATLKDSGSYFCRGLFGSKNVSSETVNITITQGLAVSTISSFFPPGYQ
Chain of extracellular region of human F158 FcγRIIIa with C-terminal 6x His-tag and GST-tag (human) (P08637 17-208): as above
Chain of extracellular region of human V158 FcγRIIIa with C-terminal 6x His-tag and GST-tag (human) (P08637 17-208 F176V): as the sequence (P08637 17-208) above, with F160V counted along it

I332E alemtuzumab (antibody)
fold improvement over WT [1]: 10.1 fold

S239D/A330L/I332E Fc variant antibody (Figure 15; antibody context not stated)
FcγRIIIa-fold (fold affinity relative to WT) [2]: 139 fold | FcγRIIIa-fold:FcγRIIb-fold ratio [3]: 18

S239D/I332E Fc variant antibody (Figure 15; antibody context not stated)
FcγRIIIa-fold (fold affinity relative to WT) [2]: 192 fold

S239D/I332E alemtuzumab (antibody)
ADCC log(EC50), DoHH-2 target cells [4]: 0.49 | fold enhancement in ADCC over WT alemtuzumab [4]: 3.3 fold

S298A/E333A/K334A alemtuzumab (antibody)
fold improvement over WT [1]: 4.7 fold | fold improvement over WT [5]: 1.7 fold

V264I/I332E alemtuzumab (antibody)
ADCC log(EC50), DoHH-2 target cells [4]: 0.6 | fold enhancement in ADCC over WT alemtuzumab [4]: 2.5 fold | fold improvement over WT [1]: 14 fold | fold improvement over WT [5]: 4 fold | Kd [6]: 0.052 µM
